This assay addresses His6-tagged Casp8p41 protein. Description: SPR; Casp8p41 immobilised on a CM5 chip (6000-7000 RU); BCL2 or phospho-S70-BCL2 flowed over; 25°C; 150 mM NaCl, 0.05 mM EDTA, 0.005% Polysorbate 20, 10 mM Hepes pH 7.4; steady state affinity fit, 1:1 model; Biacore T200.

The results in this text go back to paper PMC7595626.

phospho-S70-BCL2 (domain or fragment) came in with a Kd of 40 nM.
In the case of BCL2ΔTM-His6 (domain or fragment), the Kd worked out at 260 nM.
